# Measurements as given in the supplement of paper PMC10567573.
# ± gives the standard deviation.
# Assay: protein stability index of a GFP-peptide fusion (GPS, HEK-293T) (PSI 1-6); higher = more stable
# [1] = treatment: DMSO, c terminus: a fixed tail appended
# [2] = treatment: MLN4924 1 uM, 8 h, c terminus: a fixed tail appended
# 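Also: 24-mer peptide tiles fused after GFP, lentivirally expressed, FACS-sorted into six equal bins by GFP/DsRed ratio, decoded by Illumina sequencing, PSI is the read-weighted mean bin number.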
Sequence,protein stability index [1],protein stability index [2],"protein stability index (treatment: DMSO, c terminus: native)","protein stability index (treatment: MLN4924 1 uM, 8 h, c terminus: native)"
LGLVARQEDSGLRDHSVRVLISNH [AUP1],3 ± 0.15,3.01 ± 0.36,–,–
LGPGALHFDLRDDDDAEEEGPKRE [TCF25],5.17 ± 0.29,5.54 ± 0.13,–,–
LGVGLLTFASLETVGIYFGLVYRI [TMEM40],3.17 ± 0.25,3.29 ± 0.22,–,–
LHQTVERIHVGKKYGDIPRGIFVV [LSM1],2.76 ± 0.59,2.59 ± 0.63,–,–
LILFAWGTLLFYIGGHLVRDNDHP [FUT8],2.95 ± 0.19,3.36 ± 0.47,–,–
LIQDSPDSSTSPKGKQPTSAENSV [NANOGP8],5.23 ± 0.11,5.17 ± 0.17,–,–
LIVGAPIWFRVPYSIISLLLKDKV [PTPN9],2.59 ± 0.37,2.75 ± 0.85,–,–
LKGAFPARLKKVLIVGAPIWFRVP [PTPN9],2.96 ± 0.7,2.84 ± 0.5,–,–
LKGTLVSTLKEVKPTVFIGVPQIW [ACSBG2],2.65 ± 0.2,3.5 ± 0.61,–,–
LKHWRRAMELRHQGGEYLPKPEPP [FEM1A],3.08 ± 0.53,3.16 ± 0.41,–,–
LLARPGTGEHREFKLDKKYQRPQD [FBF1],3.95 ± 0.41,4.16 ± 0.3,–,–
LLDGLARRVGILGEELADVGGVLR [SCARA5],2.64 ± 0.2,2.72 ± 0.4,–,–
LLEGTPSSASEGDEDLRRQMQDDE [PALM],5.45 ± 0.25,5.49 ± 0.28,–,–
LLGFNLTFVFLASLLVLIEPVAAG [CLCN6],3.45 ± 0.23,3.14 ± 0.36,–,–
LLGLKAFLGLFFIVRFLESNWFVW [FADS1],2.9 ± 0.47,2.31 ± 0.43,–,–
LLLLDLLALYTPVGAAGSARQELL [ANKRD9],2.89 ± 0.38,2.88 ± 0.27,–,–
LLSLNSLLPESGIVADIELENVLD [TFE3],3.3 ± 0.49,3.3 ± 0.19,–,–
LLSSVHVLDLEARGYIKPHVDSIK [ALKBH7],2.97 ± 0.22,3.19 ± 0.33,–,–
LLVLCEDHRGRMVKHQCCPGCGYF [EHMT1],2.36 ± 0.087,2.27 ± 0.36,–,–
LMRHMATHSPQKSHQCAHCEKTFN [PLAGL1],3.24 ± 0.3,3.2 ± 0.28,–,–
LNAEAGHLDPGFLASDKTSAGNAP [C18orf25],5.07 ± 0.14,4.98 ± 0.14,–,–
LNGASVLPHKSIGESVPEPRIIM [GMPPB],–,–,3.65 ± 0.17,3.71 ± 0.14

Sequence,protein stability index [1],protein stability index [2],"protein stability index (treatment: DMSO, c terminus: native)","protein stability index (treatment: MLN4924 1 uM, 8 h, c terminus: native)"
LNGENSDIKICALGEEWSLHKIYL [GMCL1],2.14 ± 0.32,1.94 ± 0.41,–,–
LNRALSNLSSRWKNWWVRGILTLA [CDS2],3.17 ± 0.31,3.1 ± 0.49,–,–
LPCSSYIDSYDPSTGEVYCRVPNS [ALDH8A1],2.65 ± 0.22,2.88 ± 0.24,–,–
LPILTWPVLQSRTGLVYDQNMMNH [HDAC6],2.25 ± 0.23,2.3 ± 0.33,–,–
LPIVAIENILSFMSYDEISQLRLV [FBXO28],2.94 ± 0.5,2.81 ± 0.43,–,–
LPPEKGREVAKELGLPYYETSVFD [RHOBTB1],3.65 ± 0.18,3.8 ± 0.24,–,–
LPQTPHLEEDLKEVLRSEAGIELI [MYBL2],4.2 ± 0.44,4.37 ± 0.17,–,–
LPRRDFQRQVWLLFEYPESSGPAR [KCNA3],2.32 ± 0.26,2.71 ± 0.58,–,–
LPVGTQLLTVTATDRDEGANGEVT [PCDHGA10],5.32 ± 0.37,5.4 ± 0.23,–,–
LQAPVPPDSVPSLQNMGLLLDKLA [PBXIP1],3.11 ± 0.44,2.86 ± 0.46,–,–
LQDVRVNQSRCEMKTFVSPEAISP [TRIM15],4.01 ± 0.17,4.09 ± 0.29,–,–
LQEKSQCALEEYVRSQYPNQPTRF [NR2F2],3.16 ± 0.25,3.24 ± 0.24,–,–
LQEPGVFSPTPPQQFQPAGTDQVC [FCHSD1],4.25 ± 0.16,4.45 ± 0.27,–,–
LQEQHLSSPQGVQLDIASQSLDQE [BCL2L13],5.38 ± 0.28,5.56 ± 0.21,–,–
LQEVLSSDENGGTYVSPPGNEEEE [DDIT3],5.63 ± 0.27,5.42 ± 0.3,–,–
LQGSLFGLAGLLPASYTAPIMSGQ [SLC29A1],2.44 ± 0.28,2.27 ± 0.3,–,–
LQKLLSGRSREELDELTGEVAGGG [FEM1A],4.64 ± 0.19,4.71 ± 0.2,–,–
LQLRYSLRILIGDPPHHDHHDEFC [BEX5],2.74 ± 0.54,2.48 ± 0.45,–,–
LQMEMKEDDVSFLMKHKSRKRRLF [TRIM35],3.35 ± 0.35,3.54 ± 0.16,–,–
LQPEQQLNIYKTLKTHLIEKGILQ [CDS1],2.42 ± 0.14,2.58 ± 0.4,–,–
LQTLLYFLSDVTAAVKENQMTPTN [DLC1],2.04 ± 0.52,2.12 ± 0.83,–,–
LRAIDFGTDEEEEEFIEEEDQEEE [TRIM63],5.63 ± 0.15,5.65 ± 0.13,–,–
